Measured values reported in patent US20250145710A1 (published 2025).
Changes are numbered by the printed parent chain.

B1: IMC-2-7 tandem scFv antibody (bispecific antibody)
scFv: SYELTQPPSVSVSPGQTARITCSAGSGLYGWYQQKPGQAPVLVIYGTNKRPSGIPERFSGSSSGTTVTLTISGVQAEDEADYYCGSADSSTNAGIFGGGTKLTVLGGGGSGGGGSGGGGSEVQLLESGGGLVQPGGSLRLSCAASGFTFSSYAMNWVRQAPGKGLEWVAGISSSGRYTGYADSVKGRFTISRDNSKNTLYLQMNSLRAEDTAVYYCAKSVGSGVSWSGYVATSLDAWGQGTLVTVSSGGGGSEVQLVESGGGLVQPGGSLRLSCAASGFTFSTYAMNWVRQAPGKGLEWVGRIRSKYNNYATYYADSVKGRFTISRDDSKNTLYLQMNSLRAEDTAVYYCVRHGNFGDSYVSWFAYWGQGTLVTVSSGKPGSGKPGSGKPGSGKPGSQAVVTQEPSLTVSPGGTVTLTCGSSTGAVTTSNYANWVQQKPGKSPRGLIGGTNKRAPGVPARFSGSLLGGKAALTISGAQPEDEADYYCALWYSNHWVFGGGTKLTVL
B2: IMC-21-1 IgG-(scFv)2 antibody (bispecific antibody)
heavy: not shown
light: SYELTQPPSVSVSPGQTARITCSAGSGLYGWYQQKPGQAPVLVIYGTNKRPSGIPERFSGSSSGTTVTLTISGVQAEDEADYYCGSADSSTNAGIFGGGTKLTVLGQPKAAPSVTLFPPSSEELQANKATLVCLISDFYPGAVTVAWKADSSPVKAGVETTTPSKQSNNKYAASSYLSLTPEQWKSHRSYSCQVTHEGSTVEKTVAPTECS
B3: IMC-16-15 scFv-Fab IgG antibody (bispecific antibody)
heavy: EVQLLESGGGLVQPGGSLRLSCAASGFTFSSYAMNWVRQAPGKGLEWVAGISSSGRYTGYADSVKGRFTISRDNSKNTLYLQMNSLRAEDTAVYYCAKSMGSGVSWSGYVATSIDVWGQGTLVTVSSASTKGPSVFPLAPSSKSTSGGTAALGCLVKDYFPEPVTVSWNSGALTSGVHTFPAVLQSSGLYSLSSVVTVPSSSLGTQTYICNVNHKPSNTKVDKKVEPKSCDKTHTCPPCPAPEAAGGPSVFLFPPKPKDTLMISRTPEVTCVVVDVSHEDPEVKFNWYVDGVEVHNAKTKPREEQYNSTYRVVSVLTVLHQDWLNGKEYKCKVSNKALPAPIEKTISKAKGQPREPQVYTLPPSREEMTKNQVSLWCLVKGFYPSDIAVEWESNGQPENNYKTTPPVLDSDGSFFLYSKLTVDKSRWQQGNVFSCSVMHEALHNHYTQKSLSLSPGK
light: B2 light
scFv: EVQLVESGGGLVQPGGSLRLSCAASGFTFSTYAMNWVRQAPGKGLEWVGRIRSKYNNYATYYADSVKGRFTISRDDSKNTLYLQMNSLRAEDTAVYYCVRHGNFGDSYVSWFAYWGQGTLVTVSSGKPGSGKPGSGKPGSGKPGSQAVVTQEPSLTVSPGGTVTLTCGSSTGAVTTSNYANWVQQKPGKSPRGLIGGTNKRAPGVPARFSGSLLGGKAALTISGAQPEDEADYYCALWYSNHWVFGGGTKLTVLASPKSSDKTHTCPPCPAPEAAGGPSVFLFPPKPKDTLMISRTPEVTCVVVDVSHEDPEVKFNWYVDGVEVHNAKTKPREEQYNSTYRVVSVLTVLHQDWLNGKEYKCKVSNKALPAPIEKTISKAKGQPREPQVYTLPPSREEMTKNQVSLSCAVKGFYPSDIAVEWESNGQPENNYKTTPPVLDSDGSFFLVSKLTVDKSRWQQGNVFSCSVMHEALHNHYTQKSLSLSPGK
B4: IMC-16-3 scFv-Fab IgG antibody (bispecific antibody)
heavy: B3 heavy with M100V, I114L, V116A
light: B2 light
scFv: B3 scFv

biological target: human CD3 (UniProt P07766 23-207; P04234 22-171; P09693 23-182); assay: flow cytometry cell binding
Sequence (P07766 23-207, chain 1 of 3): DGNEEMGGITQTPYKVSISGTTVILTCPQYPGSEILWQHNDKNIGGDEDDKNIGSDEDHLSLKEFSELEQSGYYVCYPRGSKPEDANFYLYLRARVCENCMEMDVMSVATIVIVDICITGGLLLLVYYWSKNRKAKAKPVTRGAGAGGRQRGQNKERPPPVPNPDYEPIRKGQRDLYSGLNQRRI
Sequence (P04234 22-171, chain 2 of 3): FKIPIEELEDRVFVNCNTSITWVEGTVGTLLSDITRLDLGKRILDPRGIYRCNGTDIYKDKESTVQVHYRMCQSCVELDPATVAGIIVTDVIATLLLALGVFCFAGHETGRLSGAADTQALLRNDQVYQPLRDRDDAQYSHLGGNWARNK
Sequence (P09693 23-182, chain 3 of 3): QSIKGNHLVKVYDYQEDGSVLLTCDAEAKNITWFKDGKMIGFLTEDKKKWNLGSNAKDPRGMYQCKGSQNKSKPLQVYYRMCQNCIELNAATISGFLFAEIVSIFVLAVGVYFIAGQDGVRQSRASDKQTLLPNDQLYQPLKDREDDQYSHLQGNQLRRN

Point of comparison: B4, EC50 3.46 nM. Against it:
- B1 — 2.1-fold higher, 7.3 nM
- B2 — 15-fold higher, 53.6 nM
- B3 — within 1.5-fold, 2.62 nM

Biological target: T1, human CLDN6 (human, UniProt P56747 1-220)
T1 chain: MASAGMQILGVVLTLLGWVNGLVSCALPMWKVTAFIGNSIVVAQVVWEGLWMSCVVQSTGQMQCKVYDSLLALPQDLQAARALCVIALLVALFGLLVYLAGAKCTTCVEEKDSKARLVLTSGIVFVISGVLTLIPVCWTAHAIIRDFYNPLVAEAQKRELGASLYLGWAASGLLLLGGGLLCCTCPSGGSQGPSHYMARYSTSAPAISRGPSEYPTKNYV
Assay: flow cytometry cell binding

Point of comparison: B3, EC50 24.1 nM. Against it:
- B1 — 1.7-fold higher, 40.5 nM
- B2 — 3.3-fold lower, 7.2 nM
- B4 — 1.8-fold lower, 13.7 nM
